{"source": "paper PMC10950897", "about": "“VCF1 is a p97/VCP cofactor promoting recognition of ubiquitylated p97-UFD1-NPL4 substrates” (Nature Communications, 2024)", "molecules": {"B1": {"name": "Complement component 1 Q subcomponent-binding protein, mitochondrial (protein, UniProt Q07021 74-282, looked up)", "Complement component 1 Q …": "LHTDGDKAFVDFLSDEIKEERKIQKHKTLPKMSGGWELELNGTEAKLVRKVAGEKITVTFNINNSIPPTFDGEEEPSQGQKVEEQEPELTSTPNFVVEVIKNDDGKKALVLDCHYPEDEVGQEDEAESDIFSIREVSFQSTGESEWKDTNYTLNTDSLDWALYDHLMDFLADRGVDNTFADELVELSTALEHQEYITFLEDLKSFVKSQ", "notes": "prey protein"}, "B2": {"name": "U4/U6.U5 tri-snRNP-associated protein 2 (protein, UniProt Q53GS9 1-565, looked up)", "Ubiquitin carboxyl-terminal …": "MSGRSKRESRGSTRGKRESESRGSSGRVKRERDREREPEAASSRGSPVRVKREFEPASAREAPASVVPFVRVKREREVDEDSEPEREVRAKNGRVDSEDRRSRHCPYLDTINRSVLDFDFEKLCSISLSHINAYACLVCGKYFQGRGLKSHAYIHSVQFSHHVFLNLHTLKFYCLPDNYEIIDSSLEDITYVLKPTFTKQQIANLDKQAKLSRAYDGTTYLPGIVGLNNIKANDYANAVLQALSNVPPLRNYFLEEDNYKNIKRPPGDIMFLLVQRFGELMRKLWNPRNFKAHVSPHEMLQAVVLCSKKTFQITKQGDGVDFLSWFLNALHSALGGTKKKKKTIVTDVFQGSMRIFTKKLPHPDLPAEEKEQLLHNDEYQETMVESTFMYLTLDLPTAPLYKDEKEQLIIPQVPLFNILAKFNGITEKEYKTYKENFLKRFQLTKLPPYLIFCIKRFTKNNFFVEKNPTIVNFPITNVDLREYLSEEVQAVHKNTTYDLIANIVHDGKPSEGSYRIHVLHHGTGKWYELQDLQVTDILPQMITLSEAYIQIWKRRDNDETNQQGA", "notes": "prey protein"}, "B3": {"name": "p47: p97 cofactor (protein)", "chain": "MAAERQEALREFVAVTGAEEDRARFFLESAGWDLQIALASFYEDGGDEDIVTISQATPSSVSRGTAPSDNRVTSFRDLIHDQDEDEEEEEGQRFYAGGSERSGQQIVGPPRKKSPNELVDDLFKGAKEHGAVAVERVTKSPGETSKPRPFAGGGYRLGAAPEEESAYVAGEKRQHSSQDVHVVLKLWKSGFSLDNGELRSYQDPSNAQFLESIRRGEVPAELRRLAHGGQVNLDMEDHRDEDFVKPKGAFKAFTGEGQKLGSTAPQVLSTSSPAQQAENEAKASSSILIDESEPTTNIQIRLADGGRLVQKFNHSHRISDIRLFIVDARPAMAATSFILMTTFPNKELADESQTLKEANLLNAVIVQRLT", "modifications": "left off: His6, end not stated, state not stated", "notes": "p97 cofactor"}, "B4": {"name": "Isocitrate dehydrogenase [NAD] subunit gamma, mitochondrial (protein, UniProt P51553 40-393, looked up)", "Isocitrate dehydrogenase …": "FSEQTIPPSAKYGGRHTVTMIPGDGIGPELMLHVKSVFRHACVPVDFEEVHVSSNADEEDIRNAIMAIRRNRVALKGNIETNHNLPPSHKSRNNILRTSLDLYANVIHCKSLPGVVTRHKDIDILIVRENTEGEYSSLEHESVAGVVESLKIITKAKSLRIAEYAFKLAQESGRKKVTAVHKANIMKLGDGLFLQCCREVAARYPQITFENMIVDNTTMQLVSRPQQFDVMVMPNLYGNIVNNVCAGLVGGPGLVAGANYGHVYAVFETATRNTGKSIANKNIANPTATLLASCMMLDHLKLHSYATSIRKAVLASMDNENMHTPDIGGQGTTSEAIQDVIRHIRVINGRAVEA", "notes": "prey protein"}, "B5": {"name": "LMNA (protein, UniProt P02545 1-661, looked up)", "Prelamin-A/C": "METPSQRRATRSGAQASSTPLSPTRITRLQEKEDLQELNDRLAVYIDRVRSLETENAGLRLRITESEEVVSREVSGIKAAYEAELGDARKTLDSVAKERARLQLELSKVREEFKELKARNTKKEGDLIAAQARLKDLEALLNSKEAALSTALSEKRTLEGELHDLRGQVAKLEAALGEAKKQLQDEMLRRVDAENRLQTMKEELDFQKNIYSEELRETKRRHETRLVEIDNGKQREFESRLADALQELRAQHEDQVEQYKKELEKTYSAKLDNARQSAERNSNLVGAAHEELQQSRIRIDSLSAQLSQLQKQLAAKEAKLRDLEDSLARERDTSRRLLAEKEREMAEMRARMQQQLDEYQELLDIKLALDMEIHAYRKLLEGEEERLRLSPSPTSQRSRGRASSHSSQTQGGGSVTKKRKLESTESRSSFSQHARTSGRVAVEEVDEEGKFVRLRNKSNEDQSMGNWQIKRQNGDDPLLTYRFPPKFTLKAGQVVTIWAAGAGATHSPPTDLVWKAQNTWGCGNSLRTALINSTGEEVAMRKLVRSVTVVEDDEDEDGDDLLHHHHGSHCSSSGDPAEYNLRSRTVLCGTCGQPADKASASGSGAQVGGPISSGSSASSVTVTRSYRSVGGSGGGSFGDNLVTRSYLLGNSSPRTQSPQNC"}}, "key": {"[1]": {"test_system": "GFP-VCF1 WT interactome, U2OS cells", "assay": "GFP IP mass spectrometry of VCF1-interacting proteins, partially denaturing RIPA buffer (+DOX/-DOX)", "format": "binding, human", "experimental": "(§1) U2OS (catalog no. HTB-96) cells were obtained from ATCC. HEK293-EBNA1-6E cells were a kind gift from Yves Durocher (National Research Council Canada, Montreal, Canada). All mammalian cell lines were cultured under standard conditions at 37 °C and 5% CO2 in DMEM (Thermo) supplemented with 10% FBS (v/v) and penicillin-streptomycin (Thermo). Recombination cloning-compatible U2OS cells were generated using the Flp-In T-Rex Core Kit (Thermo) according to the manufacturer’s instructions and maintained under selection using Blasticidin (Invivogen) and Zeocin (Thermo). To generate cell lines stably expressing GFP-VCF1, U2OS Flp-In T-Rex cells (Thermo) were co-transfected with GFP-VCF1 constructs and pOG44 (Thermo) plasmids, followed by selection with Hygromycin (Invitrogen). Single clones were carefully screened for uniform expression of ectopic GFP-VCF1 at low levels and maintained under selection with Blasticidin and Hygromycin. To induce GFP-VCF1 expression, cells were treated with Doxycycline (DOX) (0.5 µg/ml) for 16 h. U2OS cell lines stably expressing Ub(G76V)-GFP or Ub(G76V)-GFP-20AA were described previously. A U2OS cell line stably expressing Ub(G76V)-GFP-NES was generated under G418 (Invivogen) selection. Clones with low baseline GFP expression were visually screened for low basal GFP expression. All cell lines used in this study were regularly tested negative for mycoplasma infection and were not authenticated.\nImmunoblotting was performed as previously described. Immunoprecipitation (IP) of HA-tagged proteins was performed using Anti-HA Affinity matrix (Roche) under denaturing conditions, unless otherwise stated. GFP-trap and […] Fab-trap agarose (Chromotek) were used according to manufacturer’s instructions. Cell lysis was performed using RIPA buffer (140 mM NaCl; 10 mM Tris-HCl, pH 8.0; 0.1% sodium deoxycholate; 1% Triton X-100; 0.1% SDS; 1 mM EDTA; 0.5 mM EGTA) or EBC buffer (50 mM Tris, pH 7.5; 150 mM NaCl; 1 mM EDTA; 0.5% NP-40, 1 mM DTT). IPs were washed in non-denaturing buffer (50 mM Tris-HCl, pH 7.5; 150 mM NaCl; 0.5 mM EDTA). […]"}, "[2]": {"target": "p97", "details": "reported for p47/NSFL1C; cited from earlier work", "from_the_text": "Through in silico searches for candidate regulators of p97 function, we came across FAM104A, a virtually uncharacterized protein detected in unbiased large-scale proteomic profiles of p97 interaction networks along with known p97 cofactors (Supplementary Fig. 1a)[20],[21], but whose precise connection to p97 has not been studied. In humans, FAM104A encodes a relatively small protein of 186 amino acids that contains no annotated domains but is conserved across vertebrates (Supplementary Fig. 1b) and is broadly expressed, albeit at low levels, in human tissues. For reasons described in the follo ..."}, "[3]": {"test_system": "p97 with UFD1-NPL4, p47 or FAF1", "assay": "In vitro binding with p97 cofactors (GST, StrepTactin, p47, p97 or FLAG pulldown)", "parameters": "species or system human", "details": "high/increasing concentrations", "experimental": "All in vitro binding experiments were performed in EBC or RIPA buffer as indicated. Recombinant Biotin-tagged K48-linked poly-ubiquitin chains (2−7) and K48-linked poly-ubiquitin chains (2−16) were purchased from R&D Systems and Enzo Life Science, respectively. Recombinant proteins were incubated with Strep-Tactin Sepharose (IBA), Glutathione agarose (Gold Biotechnology) or […] Fab-trap agarose (ChromoTek) overnight on an end-over-end rotator at 4 °C, washed six times with EBC or RIPA buffer, and resuspended in 2×Laemmli sample buffer. For p97, VCF1 or p47 pulldowns, antibodies (0.5 µg/sample) were coupled to agarose beads, incubated with recombinant proteins or cell lysates and washed with the indicated buffer. To assess p97-UFD1-NPL4 binding to ubiquitylated proteins in total cell extracts, U2OS cells were lysed in EBC buffer supplemented with protease and phosphatase inhibitors, sonicated and incubated on ice for 10 min. Lysates were cleared by centrifugation for 10 min at 16,100 × g. Cell lysate (40 µg) was added to recombinant proteins in EBC buffer, incubated overnight on the rotator with […] Fab-trap agarose (ChromoTek), and beads were washed six times."}, "[4]": {"test_system": "GFP-VCF1 WT / N167A interactome, U2OS cells", "assay": "GFP IP mass spectrometry, comparison of VCF1 WT and N167A interactomes (WT/N167A)", "format": "binding, human", "details": "GFP-VCF1 WT / N167A IPs, partially denaturing RIPA buffer", "experimental": "as §1, with “All cell lines used in this study were regularly tested negative for mycoplasma infection and were not authenticated.” left out"}}}
{"molecule": "B1", "values": [{"measurement": "Relative protein level (log2) WT/noDox", "setting": "[1]", "value": 2.689, "unit": "log2"}]}
{"molecule": "B2", "values": [{"measurement": "Relative protein level (log2) WT/noDox", "setting": "[1]", "value": 1.44, "unit": "log2"}]}
{"molecule": "B3", "values": [{"measurement": "Kd", "setting": "[2]", "value": "200 to 500", "unit": "nM"}, {"measurement": "displacement of p97-bound cofactors", "setting": "[3]", "value": "did not lead to dissociation of VCF1 from p97"}]}
{"molecule": "B4", "values": [{"measurement": "Relative protein level (log2) WT/noDox", "setting": "[1]", "value": 1.726, "unit": "log2"}]}
{"molecule": "B5", "values": [{"measurement": "Relative protein level (log2) WT/MUT", "setting": "[4]", "value": 3.361, "unit": "log2"}]}
